Results taken from US20070071745A1 (Hoffmann-La Roche, published 2007).
Residue numbers refer to the chain shown, from its start. Names and notes keep the numbering of the source. Blank lines part the entries; values can stand above or below the binder they belong to.

How the values were obtained:
human CD20 [1] = target: T1, human CD20 (human, UniProt P11836 1-297); experiment: flow cytometry on Raji B-cell lymphoma cells (FIG. 11)
T1 construct: whole, on cells; also called human CD20 antigen; target antigen (CD20)
T1 sequence (looked up): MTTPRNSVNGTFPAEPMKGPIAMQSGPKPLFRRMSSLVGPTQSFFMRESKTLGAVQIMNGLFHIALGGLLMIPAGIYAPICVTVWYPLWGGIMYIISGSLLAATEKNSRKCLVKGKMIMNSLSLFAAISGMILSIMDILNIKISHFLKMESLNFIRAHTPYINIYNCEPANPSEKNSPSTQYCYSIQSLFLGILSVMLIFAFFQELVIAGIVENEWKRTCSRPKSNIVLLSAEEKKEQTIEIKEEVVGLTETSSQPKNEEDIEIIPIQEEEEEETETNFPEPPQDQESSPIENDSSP
Protocol: (§1) 200,000 cells in 180 μl FACS buffer (PBS containing 2% FCS and 5 mM EDTA) were transferred to 5 ml polystyrene tubes. Next, 20 μl of 10-fold concentrated anti-CD20 antibody samples (1-5000 ng/ml final concentration) or PBS only were added, and the tubes were incubated at 4° C. for 30 min. Subsequently, samples were washed twice with FACS buffer and pelleted at 300×g for 3 min. Supernatant was aspirated off and cells were taken up in 100 μl FACS buffer. Next, 1 μl anti-Fc-specific F(ab′)2-FITC fragments (Jackson Immuno Research Laboratories, USA) was added and the tubes were incubated at 4° C. for 30 min. Samples were washed twice with FACS buffer and taken up in 500 μl of FACS buffer containing 0.5 μg/ml PI for analysis by Flow Cytometry. Binding was determined by plotting the geometric mean fluorescence against the antibody concentrations.

human CD20 [2] = target: T1, human CD20; experiment: flow cytometry on Raji B-cell lymphoma cells (FIGS. 2, 9 to 13)
Protocol: as §1

human CD20 [3] = target: T1, human CD20; experiment: flow cytometry on Raji B-cell lymphoma cells (FIG. 22)
Protocol: as §1

human CD20 [4] = target: T1, human CD20; experiment: flow cytometry on Raji B-cell lymphoma cells (FIG. 2)
Protocol: as §1

human CD20 [5] = target: T1, human CD20; experiment: flow cytometry on Raji B-cell lymphoma cells (FIGS. 2, 9 to 13); the same paragraph adds that the binding of B-HL11 to B-HL17 does not differ drastically in EC50 and stoichiometry
Protocol: as §1

human CD20 [6] = target: T1, human CD20; experiment: flow cytometry on Raji B-cell lymphoma cells (methods described above)
Protocol: as §1

binding result (human CD20 [1]): binds
B1: B-HH1 paired with the BKV1 humanized B-ly1 light chain (antibody, human IgG1, V domains shown)
VH: QVQLVQSGAEVKKPGSSVKVSCKASGYTFSYSWMSWVRQAPGQGLEWMGRIFPGDGDTDYAQKFQGRVTITADKSTSTAYMELSSLRSEDTAVYYCARNVFDGYWLVYWGQGTLVTVSS
VL: DIVMTQTPLSLPVTPGEPASISCRSSKSLLHSNGITYLYWYLQKPGQSPQLLIYQMSNLVSGVPDRFSGSGSGTDFTLKISRVEAEDVGVYYCAQNLELPYTFGGGTKVEIKR
notes: also called BHH1-BKV1

binding result (human CD20 [2]): binds
B2: BHH2-BKV1 humanized IgG1 B-ly1 anti-human CD20 antibody (antibody, V domains shown)
VH: B1 VH with T28A, S35N, A61N, Q62G, Q65K
VL: B1 VL
notes: Non-glycoengineered form; also called BHH2-BKV1-wt; humanized B-ly1

binding result (human CD20 [3]): binds
B3: B-HH8 with the BKV1 light chain (antibody, human IgG1, V domains shown)
VH: B1 VH with S16A, S30T, S35N, A61N, Q62G, Q65K
VL: B1 VL

binding result (human CD20 [4]): binds
B4: B-HL12 (G9A, V48M) paired with the BKV1 light chain (antibody, human IgG1, V domains shown)
VH: EVQLVESGAGLVKPGGSLRLSCAASGFTFSYSWMNWVRQAPGKGLEWMGRIFPGDGDTDYNGKFKGRVTITADKSTSTAYMELSSLRSEDTAVYYCARNVFDGYWLVYWGQGTLVTVSS
VL: B1 VL

binding result (human CD20 [1]): binds
B5: B-HH3 paired with the BKV1 humanized B-ly1 light chain (antibody, human IgG1, V domains shown)
VH: B1 VH with T28A, S35N, A61N, Q62G, Q65K, Y95L
VL: B1 VL
notes: also called BHH3-BKV1

binding result (human CD20 [5]): binds
B6: BHL11-BKV1 (antibody, human IgG1, V domains shown)
VH: B4 VH with E1Q, A9G, M48V
VL: B1 VL
notes: also called B-HL11 (having the mutation E1Q)

binding result (human CD20 [4]): binds
B7: BHL16-BKV1 (antibody, human IgG1, V domains shown)
VH: B4 VH with A9G, L20V
VL: B1 VL
notes: also called BHL16-BKV1 W1; B-HL16 (L20V, V48M)

binding result (human CD20 [2]): binds
B8: BHL8-BKV1 (antibody, human IgG1, V domains shown)
VH: B4 VH with A9G, M48V
VL: B1 VL
notes: also called BHL8-BKV1 wt

binding result (human CD20 [4]): binds
B9: BHL13-BKV1 (antibody, human IgG1, V domains shown)
VH: B4 VH with A9G, L11V
VL: B1 VL
notes: also called B-HL13 (L11V, V48M)

binding result (human CD20 [4]): binds
B10: BHL17-BKV1 (antibody, human IgG1, V domains shown)
VH: B4 VH with A9G
VL: B1 VL
notes: also called BHL17-BKV1 W1; B-HL17 (V48M)

binding result (human CD20 [6]): binds
B11: BHH2-B (K12V) paired with a BKV1 light chain (antibody, human IgG1, V domains shown)
VH: B1 VH with K12V, T28A, S35N, A61N, Q62G, Q65K
VL: B1 VL

binding result (human CD20 [6]): binds
B12: BHH2-A (V11L) paired with a BKV1 light chain (antibody, human IgG1, V domains shown)
VH: B1 VH with V11L, T28A, S35N, A61N, Q62G, Q65K
VL: B1 VL

binding result (human CD20 [3]): binds
B13: B-HH9 with the BKV1 light chain (antibody, human IgG1, V domains shown)
VH: B1 VH with S16A, S35N, A61N, Q62G, Q65K
VL: B1 VL

binding result (human CD20 [4]): binds
B14: BHL15-BKV1 (antibody, human IgG1, V domains shown)
VH: B4 VH with A9G, G16S
VL: B1 VL
notes: also called BHL15-BKV1 W1; B-HL15 (G16S, V48M)

binding result (human CD20 [4]): binds
B15: BHL14-BKV1 (antibody, human IgG1, V domains shown)
VH: B4 VH with A9G, V12K
VL: B1 VL
notes: also called B-HL14 (V12K, V48M)
